Each block holds one molecule with its values, some of them ahead of it.
How the values were obtained:
STAT1 (Homo sapiens) = STAT1 (Homo sapiens) (UniProt P42224); test: analytical ultracentrifugation; details: cited from earlier work
[1] = molecular target: T1, untagged STAT1, wild type (human), P42224; test: native gel or EMSA; extracts with GFP-tagged and with untagged STAT1 mixed and co-incubated for 0, 15 or 30 min at room temperature with [33P]-labelled M67 (single GAS site); band of intermediate mobility; details: remark: other sources report otherwise
T1 chain: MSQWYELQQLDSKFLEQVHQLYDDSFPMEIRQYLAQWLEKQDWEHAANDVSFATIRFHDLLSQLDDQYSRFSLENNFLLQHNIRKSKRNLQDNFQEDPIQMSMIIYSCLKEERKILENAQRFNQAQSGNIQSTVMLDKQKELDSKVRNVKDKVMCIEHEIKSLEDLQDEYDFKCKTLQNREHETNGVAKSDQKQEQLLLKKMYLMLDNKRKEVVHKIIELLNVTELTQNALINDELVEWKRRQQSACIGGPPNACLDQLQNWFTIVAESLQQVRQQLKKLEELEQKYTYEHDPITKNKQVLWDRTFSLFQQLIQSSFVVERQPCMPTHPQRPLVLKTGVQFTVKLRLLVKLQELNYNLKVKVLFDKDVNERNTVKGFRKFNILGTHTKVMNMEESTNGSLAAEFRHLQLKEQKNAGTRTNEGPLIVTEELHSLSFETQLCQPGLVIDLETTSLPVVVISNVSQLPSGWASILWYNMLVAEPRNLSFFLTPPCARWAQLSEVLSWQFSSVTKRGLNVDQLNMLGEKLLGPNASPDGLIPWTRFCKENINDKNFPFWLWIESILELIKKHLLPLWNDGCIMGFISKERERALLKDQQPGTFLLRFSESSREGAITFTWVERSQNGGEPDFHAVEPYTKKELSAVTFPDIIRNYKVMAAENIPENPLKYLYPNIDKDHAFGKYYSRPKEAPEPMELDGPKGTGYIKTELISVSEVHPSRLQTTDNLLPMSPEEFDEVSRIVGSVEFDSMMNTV

Molecule: STAT1 (from UniProt P42224)
Kd (STAT1 (Homo sapiens)): 50 nM

half-life of the dimer [1]: > 10 min
B1: untagged STAT1, wild type, P42224 1-750 (natural protein)
chain: T1 chain
modifications: here or on the partner: phosphotyrosine at 701 (tyrosine-phosphorylated, from IFNγ-stimulated cells); phosphotyrosine at 701 (tyrosine-phosphorylated, from IFNγ-stimulated cells)
